From the supplement of paper PMC9876800

Test system: peptide library, one residue held at a place counted from the S/T acceptor
Assay: relative phosphorylation of the sub-library (ratio to the mean residue at this position); higher = residue favoured
Conditions: human
In short: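 Purified recombinant kinases (human or orthologue constructs) were incubated in 384-well plates with biotinylated degenerate peptide sub-libraries, each fixing one residue at one position around a central Ser/Thr. Peptides were at 50 μM, with 50 μM ATP spiked with γ-32P-ATP, for 90 min under kinase-specific conditions. Spots on streptavidin membranes were phosphorimaged and quantified by densitometry. Relative sub-library phosphorylation is a ratio to the mean residue at that position.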

Chain of RIPK4, construct: aa1-300 (P57078 1-300, looked up): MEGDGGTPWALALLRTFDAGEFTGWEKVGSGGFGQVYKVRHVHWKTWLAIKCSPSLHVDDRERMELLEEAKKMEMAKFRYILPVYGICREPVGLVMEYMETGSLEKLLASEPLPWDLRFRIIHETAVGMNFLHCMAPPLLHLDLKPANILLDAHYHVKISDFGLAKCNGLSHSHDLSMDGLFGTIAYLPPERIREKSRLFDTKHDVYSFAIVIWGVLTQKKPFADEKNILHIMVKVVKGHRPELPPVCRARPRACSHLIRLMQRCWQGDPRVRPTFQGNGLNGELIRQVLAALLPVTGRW
Chain of AAK1, construct: aa27-365 (Q2M2I8 27-365, looked up): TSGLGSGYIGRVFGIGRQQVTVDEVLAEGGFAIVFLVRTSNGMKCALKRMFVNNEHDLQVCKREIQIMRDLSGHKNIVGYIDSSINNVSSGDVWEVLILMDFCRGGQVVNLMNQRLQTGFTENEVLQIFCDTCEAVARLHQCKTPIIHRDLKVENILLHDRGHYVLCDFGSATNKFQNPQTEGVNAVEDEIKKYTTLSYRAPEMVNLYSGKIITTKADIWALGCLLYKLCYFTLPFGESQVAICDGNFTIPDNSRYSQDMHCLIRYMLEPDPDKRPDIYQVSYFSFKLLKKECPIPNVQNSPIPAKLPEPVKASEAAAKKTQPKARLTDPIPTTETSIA
Chain of ACVR1, construct: aa175-end (Q04771 175-509, looked up): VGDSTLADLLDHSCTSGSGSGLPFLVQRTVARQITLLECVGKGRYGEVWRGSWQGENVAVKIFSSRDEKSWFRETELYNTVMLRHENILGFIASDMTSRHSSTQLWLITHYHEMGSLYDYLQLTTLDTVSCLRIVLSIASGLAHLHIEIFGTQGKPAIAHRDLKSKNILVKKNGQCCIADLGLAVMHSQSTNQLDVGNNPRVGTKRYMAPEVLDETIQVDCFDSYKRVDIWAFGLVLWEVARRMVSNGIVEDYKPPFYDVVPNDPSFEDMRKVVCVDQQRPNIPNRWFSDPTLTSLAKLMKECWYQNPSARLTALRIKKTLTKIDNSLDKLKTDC

ACVR1, construct: aa175-end (from UniProt Q04771)
relative phosphorylation
Conditions | at +1 | at +2 | at +3 | at +4 | at -1 | at -2 | at -3 | at -4 | at -5
A fixed | 0.713 | 0.98 | 0.912 | 0.81 | 0.74 | 0.525 | 0.897 | 0.886 | 1.13
D fixed | 1.5 | 1.84 | 1.47 | 1.69 | 1.48 | 1.93 | 1.51 | 1.64 | 1.22
E fixed | 4.11 | 1.99 | 1.81 | 1.76 | 1.68 | 6.6 | 1.78 | 1.44 | 1.15
F fixed | 0.752 | 0.713 | 0.962 | 1.01 | 0.857 | 0.467 | 0.944 | 0.88 | 1.08
G fixed | 0.737 | 1.39 | 0.909 | 0.972 | 0.515 | 0.715 | 1.22 | 1.15 | 1.12
H fixed | 0.787 | 1.15 | 0.932 | 0.918 | 1.04 | 0.55 | 1.03 | 0.953 | 1.03
I fixed | 0.87 | 0.581 | 0.762 | 0.804 | 0.985 | 0.511 | 0.885 | 0.946 | 0.896
K fixed | 0.382 | 0.709 | 0.53 | 0.676 | 0.572 | 0.406 | 0.651 | 0.77 | 0.938
L fixed | 0.728 | 0.616 | 0.856 | 0.738 | 1.35 | 0.678 | 0.899 | 0.958 | 0.861
M fixed | 0.795 | 0.683 | 0.97 | 0.955 | 1.62 | 0.89 | 1.02 | 0.94 | 0.964
N fixed | 0.771 | 0.927 | 1.04 | 1.01 | 1 | 0.714 | 1.12 | 0.803 | 0.948
P fixed | 0.375 | 1.02 | 1.1 | 0.976 | 0.49 | 0.404 | 0.937 | 0.872 | 0.91
Q fixed | 0.726 | 0.876 | 0.857 | 1.01 | 0.846 | 0.739 | 0.775 | 0.791 | 0.739
R fixed | 0.453 | 0.868 | 0.647 | 0.714 | 0.673 | 0.531 | 0.781 | 0.769 | 0.902
V fixed | 1.19 | 0.638 | 0.847 | 0.783 | 0.975 | 0.462 | 0.732 | 0.834 | 0.954
W fixed | 1.04 | 0.82 | 1.26 | 1.26 | 0.903 | 0.458 | 0.864 | 1.23 | 1.18
Y fixed | 1.07 | 1.19 | 1.14 | 0.927 | 1.27 | 0.429 | 0.972 | 1.15 | 0.997
pThr fixed | 2.36 | 1.57 | 1.05 | 1.59 | 1.04 | 1.8 | 1.41 | 1.05 | 1.06
pTyr fixed | 2.25 | 1.4 | 1.32 | 1.25 | 1.37 | 0.678 | 1.37 | 1.22 | 1.17

RIPK4, construct: aa1-300 (from UniProt P57078)
relative phosphorylation
Conditions | at +1 | at +2 | at +3 | at +4 | at -1 | at -2 | at -3 | at -4 | at -5
A fixed | 0.786 | 0.77 | 0.723 | 0.883 | 0.722 | 0.944 | 1.01 | 0.988 | 1.04
D fixed | 0.444 | 0.547 | 0.572 | 0.75 | 1.76 | 1.53 | 1.02 | 1.45 | 1.43
E fixed | 0.458 | 0.509 | 0.485 | 0.618 | 0.809 | 1.36 | 0.853 | 0.96 | 0.926
F fixed | 1.86 | 1.04 | 1.37 | 1.16 | 0.6 | 0.863 | 0.994 | 0.822 | 1.04
G fixed | 1.04 | 0.738 | 0.909 | 0.918 | 0.585 | 1.33 | 0.969 | 1.07 | 0.944
H fixed | 0.776 | 1.18 | 0.859 | 1.07 | 1.48 | 1.37 | 1.14 | 1.04 | 1.07
I fixed | 1.77 | 0.843 | 1.78 | 1.05 | 0.841 | 0.635 | 0.848 | 0.861 | 0.876
K fixed | 0.691 | 1.66 | 0.792 | 1.25 | 1.63 | 0.64 | 0.919 | 0.9 | 1.09
L fixed | 1.25 | 0.978 | 1.5 | 1.01 | 0.858 | 0.628 | 0.941 | 0.819 | 0.926
M fixed | 1.71 | 1.11 | 1.04 | 0.831 | 0.815 | 0.789 | 0.996 | 0.91 | 0.909
N fixed | 0.665 | 0.943 | 0.725 | 0.726 | 1.52 | 1.24 | 0.837 | 1.26 | 0.941
P fixed | 0.376 | 0.62 | 0.706 | 1.32 | 0.461 | 0.502 | 1.11 | 0.844 | 0.922
Q fixed | 1.19 | 0.924 | 0.779 | 0.802 | 1.02 | 0.898 | 0.976 | 0.888 | 0.856
R fixed | 1.11 | 2.28 | 0.932 | 1.29 | 1.33 | 0.986 | 1.43 | 0.936 | 1.03
V fixed | 1.26 | 0.815 | 1.09 | 0.798 | 1.01 | 0.618 | 0.723 | 0.874 | 0.866
W fixed | 0.781 | 0.988 | 1.45 | 1.41 | 0.59 | 1.06 | 1.24 | 1.39 | 1.24
Y fixed | 0.836 | 1.07 | 1.3 | 1.13 | 0.963 | 1.6 | 0.998 | 0.977 | 0.898
pThr fixed | 0.839 | 0.707 | 0.778 | 0.887 | 1.03 | 1.04 | 1.07 | 1.17 | 1.23
pTyr fixed | 0.524 | 0.726 | 0.725 | 0.802 | 0.897 | 0.817 | 0.967 | 0.967 | 1.09

AAK1, construct: aa27-365 (from UniProt Q2M2I8)
relative phosphorylation
Conditions | at +1 | at +2 | at +3 | at +4 | at -1 | at -2 | at -3 | at -4 | at -5
A fixed | 0.53 | 1.27 | 0.989 | 1.1 | 0.654 | 0.915 | 1.9 | 1.2 | 0.482
D fixed | 0.174 | 0.939 | 0.688 | 0.662 | 0.274 | 1.37 | 0.462 | 0.565 | 0.273
E fixed | 0.167 | 0.89 | 0.631 | 0.778 | 0.248 | 1.08 | 0.629 | 0.951 | 0.26
F fixed | 0.219 | 0.826 | 0.731 | 0.89 | 0.926 | 0.571 | 0.828 | 0.883 | 0.722
G fixed | 12.3 | 1.27 | 1.57 | 1.19 | 1.2 | 0.48 | 0.87 | 1.09 | 0.416
H fixed | 0.272 | 1.05 | 1.15 | 0.951 | 1.17 | 0.963 | 0.676 | 0.874 | 0.564
I fixed | 0.173 | 0.629 | 0.659 | 0.706 | 0.739 | 0.642 | 1.02 | 1.06 | 2.64
K fixed | 0.33 | 0.98 | 1.26 | 1.41 | 2.09 | 0.998 | 0.879 | 1.38 | 0.445
L fixed | 0.222 | 0.703 | 0.831 | 0.783 | 1.11 | 0.968 | 0.896 | 1.26 | 1.69
M fixed | 0.21 | 0.817 | 0.743 | 0.789 | 0.941 | 1.98 | 1.33 | 1.18 | 1.47
N fixed | 0.289 | 1.42 | 1.25 | 1.01 | 0.737 | 1.37 | 0.989 | 0.73 | 0.468
P fixed | 0.787 | 0.896 | 1.16 | 1.07 | 1.93 | 0.385 | 1.84 | 0.908 | 1.22
Q fixed | 0.235 | 1.31 | 1.06 | 1.08 | 0.675 | 2.58 | 1.18 | 1.07 | 0.952
R fixed | 0.423 | 1.32 | 1.53 | 1.58 | 1.57 | 0.943 | 0.987 | 1.22 | 1.62
V fixed | 0.182 | 0.922 | 1.04 | 0.718 | 0.666 | 0.578 | 1.09 | 1.05 | 1.62
W fixed | 0.276 | 0.973 | 0.817 | 1.4 | 0.748 | 0.492 | 0.722 | 0.686 | 0.535
Y fixed | 0.243 | 0.78 | 0.905 | 0.886 | 1.32 | 0.678 | 0.699 | 0.908 | 1.62
pThr fixed | 0.209 | 0.696 | 0.57 | 0.427 | 0.206 | 0.356 | 0.514 | 0.564 | 0.342
pTyr fixed | 0.171 | 0.697 | 0.61 | 0.46 | 0.303 | 0.826 | 0.466 | 0.576 | 1.04
